According to the supplement of paper PMC9112550, “Optimization of the antimicrobial peptide Bac7 by deep mutational scanning” (BMC Biology, 2022):

Test system: Escherichia coli TOP10
Assay: shrunken log2 fold change of peptide-encoding DNA abundance (4.5 h post-induction vs induction); higher = less antimicrobial activity (less host growth inhibition)
Conditions: time post-induction: 4.5 h; library: site-saturation at positions 5, 18, 19, 20
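Note: peptides expressed intracellularly from a pBAD plasmid library in pooled LB shake-flask culture, induced with 0.3% L-arabinose, DNA abundance read by NGS, three biological replicates, DESeq2 with apeglm shrinkage.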

RRIRQRPPRLPRPRPRPCEAPRP and RRIRQRPPRLPRPRPRPCFLPRP are within 0.2 log units of each other in “shrunken log2 fold change” value: 0.00535 for the first, 0.115 for the second.

RRIRQRPPRLPRPRPRPCGAPRP and RRIRQRPPRLPRPRPRPCGSPRP are within 0.2 log units of each other in “shrunken log2 fold change” value: 0.133 for the first, -0.000687 for the second.

RRIRQRPPRLPRPRPRPCICPRP and RRIRQRPPRLPRPRPRPCIDPRP are within 0.2 log units of each other in “shrunken log2 fold change” value: -0.542 for the first, -0.424 for the second.

RRIRQRPPRLPRPRPRPCIIPRP and RRIRQRPPRLPRPRPRPCKMPRP are within 0.2 log units of each other in “shrunken log2 fold change” value: -0.0528 for the first, 0.0276 for the second.

First: RRIRQRPPRLPRPRPRPCLLPRP
Second: RRIRQRPPRLPRPRPRPCLSPRP
The “shrunken log2 fold change” value of the first is lower: -2.33 for the first, -0.383 for the second.

RRIRQRPPRLPRPRPRPCMCPRP and RRIRQRPPRLPRPRPRPCMKPRP are within 0.2 log units of each other in “shrunken log2 fold change” value: -0.147 for the first, -0.0118 for the second.

First: RRIRQRPPRLPRPRPRPCNMPRP
Second: RRIRQRPPRLPRPRPRPCNTPRP
The “shrunken log2 fold change” value of the first is higher: 0.00148 for the first, -0.257 for the second.

Compared with RRIRQRPPRLPRPRPRPCRQPRP, RRIRQRPPRLPRPRPRPCSKPRP is lower in “shrunken log2 fold change” value: 0.0342 for the first, -0.18 for the second.

RRIRQRPPRLPRPRPRPCSTPRP and RRIRQRPPRLPRPRPRPCWCPRP are within 0.2 log units of each other in “shrunken log2 fold change” value: 0.0062 for the first, -0.0854 for the second.

Compared with RRIRQRPPRLPRPRPRPCWKPRP, RRIRQRPPRLPRPRPRPCYCPRP is lower in “shrunken log2 fold change” value: 0.111 for the first, -0.338 for the second.

First: RRIRQRPPRLPRPRPRPCYHPRP
Second: RRIRQRPPRLPRPRPRPDAEPRP
The “shrunken log2 fold change” value of the first is lower: -0.947 for the first, 0.105 for the second.

Going from RRIRQRPPRLPRPRPRPDALPRP to RRIRQRPPRLPRPRPRPDCLPRP, the “shrunken log2 fold change” value falls from -0.0392 to -0.793.

Compared with RRIRQRPPRLPRPRPRPDESPRP, RRIRQRPPRLPRPRPRPDFKPRP is lower in “shrunken log2 fold change” value: 0.0454 for the first, -0.229 for the second.

Compared with RRIRQRPPRLPRPRPRPDFYPRP, RRIRQRPPRLPRPRPRPDGDPRP is higher in “shrunken log2 fold change” value: -0.288 for the first, -0.0112 for the second.

RRIRQRPPRLPRPRPRPDGEPRP and RRIRQRPPRLPRPRPRPDGRPRP are within 0.2 log units of each other in “shrunken log2 fold change” value: 0.117 for the first, 0.0192 for the second.

RRIRQRPPRLPRPRPRPDKQPRP and RRIRQRPPRLPRPRPRPDMTPRP are within 0.2 log units of each other in “shrunken log2 fold change” value: 0.0312 for the first, -0.129 for the second.

RRIRQRPPRLPRPRPRPDNEPRP and RRIRQRPPRLPRPRPRPDNHPRP are within 0.2 log units of each other in “shrunken log2 fold change” value: -0.359 for the first, -0.35 for the second.

Compared with RRIRQRPPRLPRPRPRPDQAPRP, RRIRQRPPRLPRPRPRPDQNPRP is lower in “shrunken log2 fold change” value: 0.0424 for the first, -0.377 for the second.

RRIRQRPPRLPRPRPRPDSMPRP and RRIRQRPPRLPRPRPRPDVFPRP are within 0.2 log units of each other in “shrunken log2 fold change” value: -0.17 for the first, -0.211 for the second.

RRIRQRPPRLPRPRPRPECEPRP and RRIRQRPPRLPRPRPRPEDMPRP are within 0.2 log units of each other in “shrunken log2 fold change” value: 0.028 for the first, 0.0353 for the second.

RRIRQRPPRLPRPRPRPEDNPRP and RRIRQRPPRLPRPRPRPEFHPRP are within 0.2 log units of each other in “shrunken log2 fold change” value: -0.0442 for the first, -0.0296 for the second.

RRIRQRPPRLPRPRPRPEFTPRP and RRIRQRPPRLPRPRPRPEFYPRP are within 0.2 log units of each other in “shrunken log2 fold change” value: -0.0117 for the first, -0.0478 for the second.

RRIRQRPPRLPRPRPRPEHTPRP and RRIRQRPPRLPRPRPRPEICPRP are within 0.2 log units of each other in “shrunken log2 fold change” value: -0.0628 for the first, 0.0414 for the second.

RRIRQRPPRLPRPRPRPEIMPRP and RRIRQRPPRLPRPRPRPEISPRP are within 0.2 log units of each other in “shrunken log2 fold change” value: 0.103 for the first, 0.139 for the second.

RRIRQRPPRLPRPRPRPEKMPRP and RRIRQRPPRLPRPRPRPEKVPRP are within 0.2 log units of each other in “shrunken log2 fold change” value: -0.145 for the first, -0.155 for the second.

RRIRQRPPRLPRPRPRPELPPRP and RRIRQRPPRLPRPRPRPELVPRP are within 0.2 log units of each other in “shrunken log2 fold change” value: -0.0769 for the first, -0.142 for the second.

Compared with RRIRQRPPRLPRPRPRPEMMPRP, RRIRQRPPRLPRPRPRPENIPRP is lower in “shrunken log2 fold change” value: 0.151 for the first, -0.0809 for the second.

Going from RRIRQRPPRLPRPRPRPEPEPRP to RRIRQRPPRLPRPRPRPEPWPRP, the “shrunken log2 fold change” value falls from 0.813 to 0.153.

RRIRQRPPRLPRPRPRPERCPRP and RRIRQRPPRLPRPRPRPESGPRP are within 0.2 log units of each other in “shrunken log2 fold change” value: 0.00749 for the first, 0.0279 for the second.

Compared with RRIRQRPPRLPRPRPRPESNPRP, RRIRQRPPRLPRPRPRPETMPRP is higher in “shrunken log2 fold change” value: -0.257 for the first, 0.192 for the second.

RRIRQRPPRLPRPRPRPEVAPRP and RRIRQRPPRLPRPRPRPEVGPRP are within 0.2 log units of each other in “shrunken log2 fold change” value: 0.00859 for the first, -0.0239 for the second.

RRIRQRPPRLPRPRPRPEVMPRP and RRIRQRPPRLPRPRPRPEVYPRP are within 0.2 log units of each other in “shrunken log2 fold change” value: 0.0824 for the first, -0.0137 for the second.

RRIRQRPPRLPRPRPRPEYRPRP and RRIRQRPPRLPRPRPRPFCCPRP are within 0.2 log units of each other in “shrunken log2 fold change” value: 0.0706 for the first, -0.114 for the second.

Compared with RRIRQRPPRLPRPRPRPFDKPRP, RRIRQRPPRLPRPRPRPFDLPRP is lower in “shrunken log2 fold change” value: -0.0121 for the first, -0.318 for the second.

Compared with RRIRQRPPRLPRPRPRPFERPRP, RRIRQRPPRLPRPRPRPFFWPRP is higher in “shrunken log2 fold change” value: 0.0412 for the first, 0.314 for the second.

RRIRQRPPRLPRPRPRPFGGPRP and RRIRQRPPRLPRPRPRPFHNPRP are within 0.2 log units of each other in “shrunken log2 fold change” value: 0.0432 for the first, -0.152 for the second.

RRIRQRPPRLPRPRPRPFHSPRP and RRIRQRPPRLPRPRPRPFKCPRP are within 0.2 log units of each other in “shrunken log2 fold change” value: -0.00884 for the first, 0.00905 for the second.

RRIRQRPPRLPRPRPRPFLGPRP was tested, and the “shrunken log2 fold change” value was -0.38.
